Measurements taken from paper PMC5149108.

Experiments:
Test in all cases: fluorescence anisotropy
A1-FL (hnRNPA1) = A1-FL (hnRNPA1) (UniProt P09651 1-251+304-372, internal_change)
A1-RRM = A1-RRM (UniProt P09651 14-184)
A1-LCD = A1-LCD (UniProt P09651 186-251+304-372, internal_change)

Measured: binding result

GGGCCCCCGGGUACCGAGCUGCUAAUCAAAACAAAACAAAAGCU (ssRNA) [fl-RNA44]
binds: all assays above
